From PMC5866752 (Nature chemical biology, 2018)
Where a SMILES comes first, the peptide text is derived from it. Where no end group is shown, it is not given here.

Assays:
[1] = system: GAG-mediated budding of virus-like particles from HEK293T cells; experiment: virus-like particle budding assay; type: cell-based, human; settings: 25 μM
p6–UEV interaction = target: T1, p6–UEV interaction (Homo sapiens, UniProt Q99816); experiment: sandwich ELISA monitoring disruption of the p6–UEV PPI; type: binding, HIV p6 / human UEV (TSG101)
T1 sequence (Q99816 2-145 limits assumed): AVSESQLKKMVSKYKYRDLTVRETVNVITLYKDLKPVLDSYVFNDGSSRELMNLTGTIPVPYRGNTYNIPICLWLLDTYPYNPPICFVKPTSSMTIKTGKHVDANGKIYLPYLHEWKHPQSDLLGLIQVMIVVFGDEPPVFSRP

[2] = target: T2, His6-UEV (ubiquitin E2 variant domain of the human TSG101 protein) (human, UniProt Q99816 2-145); experiment: fluorescence polarisation
T2 sequence: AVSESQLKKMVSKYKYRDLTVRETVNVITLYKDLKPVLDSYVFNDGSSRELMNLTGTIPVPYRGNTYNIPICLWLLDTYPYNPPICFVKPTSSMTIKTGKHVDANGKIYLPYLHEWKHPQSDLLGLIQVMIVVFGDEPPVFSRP

[3] = target: T2, His6-UEV (ubiquitin E2 variant domain …); experiment: ELISA

CGRKKRRQRRRPPQ [Tat]
effect on viral budding [1]: no effect

CC[C@H](C)[C@@H]1NC(=O)[C@H](Cc2c[nH]c3ccccc23)NC(=O)CNC(=O)[C@H](CO)NC(=O)[C@H](C(C)C)NC(=O)[C@H](CC(N)=O)NC(=O)[C@H](Cc2c[nH]c3ccccc23)NC(=O)[C@H](Cc2ccc(O)cc2)NC1=O [CP11] (cyclo(GWIYWNVS))
IC50 (p6–UEV interaction): 30.2 ± 2.2 µM

GGPEPTAPPEE (also: FITC label, position not given here) [FITC labelled PTAP peptide (GGPEPTAPPEE)]
Kd [2]: 16.6 µM

GVAGGAACLHFFLSMPPSHVLDIC (FITC on the N-terminus; two non-overlapping lanthionine (thioether) rings) [N-terminal FITC-labeled peptide 3]
Kd [2]: 5.5 µM

B1: GST-p6 (GST-tagged HIV p6 protein) (natural protein)
chain: LQSRPEPTAPPEESFRSGVETTTPPQKQEPIDKELYPLTSLRSLFGNDPSSQ
EC50 [3]: 0.948 µM
